The values below come from PMC7383231, “Pseudo-RNA-Binding Domains Mediate RNA Structure Specificity in Upstream of N-Ras”.

The target in data set [1] is T1, dUnr CSD789 (Drosophila melanogaster, UniProt B7Z0E2 756-990).
T1 sequence: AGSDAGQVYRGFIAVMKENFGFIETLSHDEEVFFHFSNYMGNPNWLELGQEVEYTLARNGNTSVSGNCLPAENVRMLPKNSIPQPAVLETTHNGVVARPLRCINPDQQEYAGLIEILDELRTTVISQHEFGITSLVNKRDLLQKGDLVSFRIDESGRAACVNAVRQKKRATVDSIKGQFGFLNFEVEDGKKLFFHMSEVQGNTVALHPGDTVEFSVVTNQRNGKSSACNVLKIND
As to the kind of experiment: EMSA; EMSA: 20 mM HEPES/NaOH pH 7.5, 50 mM NaCl, 10% glycerol, 2 mM DTT, 1 h at 4 C, ~25 nM RNA; NMR: 20 mM NaP pH 6.5, 50 mM NaCl, 1 mM DTT (10 mM for CSD12), 10% D2O, 298 K. The conditions noted are these: protein: recombinant; tags: tag cleaved with TEV; label: 3' pCp-Cy5; stem loops.

In the next data set the target is T2, dUnr CSD456 (Drosophila melanogaster, UniProt B7Z0E2 424-677).
T2 sequence: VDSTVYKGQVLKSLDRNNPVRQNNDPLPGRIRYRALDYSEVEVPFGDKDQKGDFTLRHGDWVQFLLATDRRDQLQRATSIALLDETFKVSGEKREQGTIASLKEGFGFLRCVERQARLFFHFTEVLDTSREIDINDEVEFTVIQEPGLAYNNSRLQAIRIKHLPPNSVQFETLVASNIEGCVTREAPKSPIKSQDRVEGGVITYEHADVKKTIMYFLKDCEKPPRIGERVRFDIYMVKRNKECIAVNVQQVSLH
Described as above. The conditions noted are these: protein: recombinant; tags: tag cleaved with TEV; label: 3' pCp-Cy5; stem loops.

The next data set has as its target T3, Unr full-length (dUnr) (Drosophila melanogaster, UniProt B7Z0E2 1-1039).
T3 sequence: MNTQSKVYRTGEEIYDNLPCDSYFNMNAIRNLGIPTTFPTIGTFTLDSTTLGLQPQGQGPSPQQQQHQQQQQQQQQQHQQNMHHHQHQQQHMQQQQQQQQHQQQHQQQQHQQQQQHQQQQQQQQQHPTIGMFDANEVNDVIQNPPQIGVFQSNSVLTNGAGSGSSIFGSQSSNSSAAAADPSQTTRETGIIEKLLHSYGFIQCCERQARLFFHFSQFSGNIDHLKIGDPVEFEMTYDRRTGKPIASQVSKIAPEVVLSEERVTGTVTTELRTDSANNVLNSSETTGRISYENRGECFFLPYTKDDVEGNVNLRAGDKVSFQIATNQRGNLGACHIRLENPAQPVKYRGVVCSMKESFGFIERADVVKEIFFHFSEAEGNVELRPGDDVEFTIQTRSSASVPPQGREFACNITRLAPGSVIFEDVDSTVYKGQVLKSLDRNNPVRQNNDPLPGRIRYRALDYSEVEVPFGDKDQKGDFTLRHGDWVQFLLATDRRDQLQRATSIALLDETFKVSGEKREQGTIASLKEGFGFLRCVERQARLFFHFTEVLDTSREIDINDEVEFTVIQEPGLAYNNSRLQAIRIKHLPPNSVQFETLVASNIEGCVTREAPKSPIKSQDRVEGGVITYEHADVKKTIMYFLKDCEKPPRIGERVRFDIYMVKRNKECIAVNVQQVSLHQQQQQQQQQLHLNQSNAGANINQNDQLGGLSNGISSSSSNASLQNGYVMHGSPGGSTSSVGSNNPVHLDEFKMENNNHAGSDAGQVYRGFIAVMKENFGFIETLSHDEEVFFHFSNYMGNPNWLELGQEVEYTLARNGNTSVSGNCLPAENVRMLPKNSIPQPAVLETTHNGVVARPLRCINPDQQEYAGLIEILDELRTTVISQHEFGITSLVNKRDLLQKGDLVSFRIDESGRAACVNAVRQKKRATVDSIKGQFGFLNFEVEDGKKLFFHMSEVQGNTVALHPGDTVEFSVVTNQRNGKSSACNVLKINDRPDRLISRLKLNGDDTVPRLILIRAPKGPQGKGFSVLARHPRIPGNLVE
The data set is described as above. The following applies: protein: recombinant; tags: His6; label: 3' pCp-Cy5; stem loops.

In another data set the target is T4, dUnr CSD123 (Drosophila melanogaster, UniProt B7Z0E2 186-414).
T4 sequence: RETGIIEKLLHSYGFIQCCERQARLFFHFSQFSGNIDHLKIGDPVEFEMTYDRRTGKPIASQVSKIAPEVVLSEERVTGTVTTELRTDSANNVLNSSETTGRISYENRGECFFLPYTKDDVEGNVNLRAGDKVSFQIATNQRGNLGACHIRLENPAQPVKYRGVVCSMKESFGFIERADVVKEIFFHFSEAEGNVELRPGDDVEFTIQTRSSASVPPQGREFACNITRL
Described as above. The following applies: protein: recombinant; tags: tag cleaved with TEV; label: 3' pCp-Cy5; stem loops.

Data set [2] concerns the target T1, dUnr CSD789. Kind of data set: NMR titration; deuterated protein; CSPs in all three domains, intermediate-to-slow exchange; EMSA: 20 mM HEPES/NaOH pH 7.5, 50 mM NaCl, 10% glycerol, 2 mM DTT, 1 h at 4 C, ~25 nM RNA; NMR: 20 mM NaP pH 6.5, 50 mM NaCl, 1 mM DTT (10 mM for CSD12), 10% D2O, 298 K. The conditions noted are these: protein: recombinant; tags: tag cleaved with TEV. For orientation: In EMSA bound probe runs differently from free probe, usually more slowly.

A further data set deals with T5, dUnr ncCSD6 (Drosophila melanogaster, UniProt B7Z0E2 593-677).
T5 sequence: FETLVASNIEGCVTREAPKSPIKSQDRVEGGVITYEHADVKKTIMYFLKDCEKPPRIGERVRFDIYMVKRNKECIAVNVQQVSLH
Kind of data set: NMR titration; no CSPs; EMSA: 20 mM HEPES/NaOH pH 7.5, 50 mM NaCl, 10% glycerol, 2 mM DTT, 1 h at 4 C, ~25 nM RNA; NMR: 20 mM NaP pH 6.5, 50 mM NaCl, 1 mM DTT (10 mM for CSD12), 10% D2O, 298 K. The conditions noted are these: protein: recombinant; tags: tag cleaved with TEV.

In the next data set the target is T6, dUnr ncCSD8 (Drosophila melanogaster, UniProt B7Z0E2 841-922).
T6 sequence: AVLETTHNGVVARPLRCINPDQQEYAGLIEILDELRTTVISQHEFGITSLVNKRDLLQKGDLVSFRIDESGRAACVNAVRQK
The data set is described as above. The following applies: protein: recombinant; tags: tag cleaved with TEV.

The next data set addresses T7, dUnr CSD78 (Drosophila melanogaster, UniProt B7Z0E2 756-922).
T7 sequence: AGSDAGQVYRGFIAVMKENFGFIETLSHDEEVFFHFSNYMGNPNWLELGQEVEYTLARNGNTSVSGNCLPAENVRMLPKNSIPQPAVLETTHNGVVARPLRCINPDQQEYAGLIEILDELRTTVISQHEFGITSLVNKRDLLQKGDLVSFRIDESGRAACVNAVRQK
As to the kind of experiment: NMR titration; joint range given for CSD78 and CSD9; EMSA: 20 mM HEPES/NaOH pH 7.5, 50 mM NaCl, 10% glycerol, 2 mM DTT, 1 h at 4 C, ~25 nM RNA; NMR: 20 mM NaP pH 6.5, 50 mM NaCl, 1 mM DTT (10 mM for CSD12), 10% D2O, 298 K. The following applies: protein: recombinant; tags: tag cleaved with TEV.

The target in another data set is T8, dUnr CSD9 (Drosophila melanogaster, UniProt B7Z0E2 898-990).
T8 sequence: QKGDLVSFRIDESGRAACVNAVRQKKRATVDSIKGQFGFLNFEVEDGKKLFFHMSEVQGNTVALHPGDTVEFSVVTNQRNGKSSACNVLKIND
The description is as above. The conditions noted are these: protein: recombinant; tags: tag cleaved with TEV.

What is called Kd is the equilibrium constant for the complex coming apart.

B1: SL67 (roX2 lncRNA stem loops 6 and 7) (structured_RNA)
RNA: ACAAUAUGCAAUACAAUACAAUACAAGACAAAAAAAUGUGUCUUGGAACCAACAUUGUACAAGUCGCAAUGCAAACUGAAGUCUUAAAAGACGUGUAAAAUGUUGCAAAUUAAGCAAAUAUAUAUGCAUAUAUGGGUAACGUUUUACGCGCCUUAACCAGU
Regarding B1, the Kd stood at 32 µM with dUnr CSD789 [1], 16 µM with dUnr CSD456, 0.707 µM with Unr full-length (dUnr) and 1.41 µM with dUnr CSD123.

B2: A15-mer RNA (ssRNA)
RNA: AAAAAAAAAAAAAAA
For B2, the binding result with dUnr CSD789 [2] is on record as “binds”.

B3: 9-mer RNA from roX2 SL6 loop (ssRNA)
RNA: AAAAAAAUG
For the molecule B3, the binding result with dUnr ncCSD6 and with dUnr ncCSD8 was “no binding” throughout. Besides, the Kd with dUnr CSD78 and with dUnr CSD9 was about 245 µM each time.
